Data from the supplement of paper PMC7125110.
± gives the standard error. This sample holds only a part of the variants without activity.

B1: glmS ribozyme (parent)
chain: AUAAAAGCGCCAGAACUACAGAAAUGUAGUUGACGAGGAGGAGGUUUAUCGAAUUUUCGGCGGAUGCCUCCAAA

Key:
Details in all cases: with glucosamine-6-phosphate
glucosamine-6-phosphate [1] = variants of: B1; assay: self-cleavage kobs at 40 uM GlcN6P; higher = faster cleavage; RNA array
Procedure, shortened: (§1)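 E. coli RNA polymerase transcribed barcoded ribozyme variants in situ on sequenced MiSeq chips, which were tracked via a hybridised Cy3 probe at 37 °C. Tiles were imaged over ~14 h after glucosamine-6-phosphate (40 μM to 10 mM) in HEPES/KCl/Mg(OAc)2 buffer was flowed in. Normalised per-tile medians were fit to one- or two-exponential decays for kobs, and kcat and KM came from weighted Michaelis–Menten fits.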

glucosamine-6-phosphate [2] = variants of: B1; assay: self-cleavage kobs at 2500 uM GlcN6P; higher = faster cleavage; RNA array
Procedure, shortened: as §1

glucosamine-6-phosphate [3] = variants of: B1; assay: self-cleavage kobs at 10000 uM GlcN6P; higher = faster cleavage; RNA array
Procedure, shortened: as §1

glucosamine-6-phosphate [4] = variants of: B1; assay: self-cleavage kobs at 160 uM GlcN6P; higher = faster cleavage; RNA array
Procedure, shortened: as §1

glucosamine-6-phosphate [5] = variants of: B1; assay: self-cleavage kobs at 640 uM GlcN6P; higher = faster cleavage; RNA array
Procedure, shortened: as §1

Variant	self-cleavage kobs at 40 uM GlcN6P (glucosamine-6-phosphate [1]) [s⁻¹]	self-cleavage kobs at 2500 uM GlcN6P (glucosamine-6-phosphate [2]) [s⁻¹]	self-cleavage kobs at 10000 uM GlcN6P (glucosamine-6-phosphate [3]) [s⁻¹]	self-cleavage kobs at 160 uM GlcN6P (glucosamine-6-phosphate [4]) [s⁻¹]	self-cleavage kobs at 640 uM GlcN6P (glucosamine-6-phosphate [5]) [s⁻¹]
A42G G59A	< 1e-05	4.78e-05 ± 2e-05			
A6C A15U G40A	< 1e-05	< 1e-05	< 1e-05		
C8G U65G C68A	< 1e-05	< 1e-05			
G35C U45G	< 1e-05	< 1e-05	< 1e-05	< 1e-05	
G9A G29C G32C U45C A53C	< 1e-05				
G13C G35A A39G A53C U56C G63C	< 1e-05	< 1e-05	< 1e-05		< 1e-05
A52U G60U C67U	< 1e-05		< 1e-05		
C11A G29U C67G C68G	3.88e-05 ± 1.7e-05				
U46C G59U	< 1e-05			< 1e-05	
A6G G44U C58U G63U	< 1e-05	< 1e-05			
C34G A53C U69A	< 1e-05		< 1e-05		
G32C U46C	< 1e-05				
U45A U47G U57A	< 1e-05		0.000108 ± 2.3e-05		
A33U U65C	< 1e-05			< 1e-05	< 1e-05
G37U U47A C68G	< 1e-05	9e-05 ± 3.5e-05	< 1e-05		
G9C G38U G63A	< 1e-05				
G41A U56A	4.59e-05 ± 9.3e-06	0.00173 ± 0.00036	0.00063 ± 8.8e-05	8.06e-05 ± 1.3e-05	0.000252 ± 2.8e-05
A42U U69G	0.000489 ± 5.4e-05	0.00369 ± 0.00061	0.00738 ± 0.0015	0.000822 ± 0.00011	0.00192 ± 0.00026
A6C A33U	< 1e-05	< 1e-05	< 1e-05		< 1e-05
A6C U31C	< 1e-05			< 1e-05	
G29U U49A U57C C70G	< 1e-05				
G9U G32A A53C U55G G63U	< 1e-05				
A42G G60A C70G	< 1e-05				
A6G U49C	< 1e-05	< 1e-05		< 1e-05	< 1e-05

Variant	self-cleavage kobs at 40 uM GlcN6P (glucosamine-6-phosphate [1]) [s⁻¹]	self-cleavage kobs at 2500 uM GlcN6P (glucosamine-6-phosphate [2]) [s⁻¹]	self-cleavage kobs at 10000 uM GlcN6P (glucosamine-6-phosphate [3]) [s⁻¹]	self-cleavage kobs at 160 uM GlcN6P (glucosamine-6-phosphate [4]) [s⁻¹]	self-cleavage kobs at 640 uM GlcN6P (glucosamine-6-phosphate [5]) [s⁻¹]
G44U A53G C70A	< 1e-05	< 1e-05	< 1e-05		
G51A U55A C58G	< 1e-05		< 1e-05		
G41C C70G	0.0028 ± 0.00025	0.0672 ± 0.025		0.00588 ± 0.00089	0.023 ± 0.0035
U54C U55G	0.00056 ± 0.00017	0.00712 ± 0.0021	0.0366 ± 0.018	0.000955 ± 0.00031	0.00482 ± 0.0012
G9A C11U	< 1e-05	< 1e-05	< 1e-05	< 1e-05	< 1e-05
G7A G21U A33G C67U U69G	8.76e-05 ± 2.2e-05		0.000115 ± 1.8e-05		
G40C	0.000161 ± 2.8e-06	0.00453 ± 0.0002		0.000388 ± 1.8e-05	0.00123 ± 3.8e-05
G29C G41U A48G U49C G60C	< 1e-05		< 1e-05		
U30G U69C	0.000101 ± 2.9e-05	6.49e-05 ± 3.1e-05	0.000535 ± 0.00011		0.00045 ± 0.00019
A14G U31A A52C	< 1e-05				
C58G G60A	< 1e-05				
U46A G51U	< 1e-05	< 1e-05	< 1e-05	< 1e-05	< 1e-05
A14C G44C C50U U65G	< 1e-05				
G62C	< 1e-05	< 1e-05	< 1e-05	< 1e-05	< 1e-05
A33G U47G	< 1e-05		< 1e-05	< 1e-05	< 1e-05
C8G A39U C58U	< 1e-05		< 1e-05	< 1e-05	< 1e-05
G51A A64U	< 1e-05			< 1e-05	
G7C A52C	< 1e-05	< 1e-05		< 1e-05	< 1e-05
C11U G29C A53U U56G C70A	0.000205 ± 4.8e-05		0.000369 ± 8.6e-05		
G32C G44A	< 1e-05	< 1e-05	< 1e-05	< 1e-05	< 1e-05
A33G A42G U46G U56A	< 1e-05	< 1e-05	< 1e-05		< 1e-05
U31C U49G C67U	< 1e-05				
A39G U49C A52G G63U C68G	< 1e-05				
A33G C34U	< 1e-05	< 1e-05			

Variant	self-cleavage kobs at 40 uM GlcN6P (glucosamine-6-phosphate [1]) [s⁻¹]	self-cleavage kobs at 2500 uM GlcN6P (glucosamine-6-phosphate [2]) [s⁻¹]	self-cleavage kobs at 10000 uM GlcN6P (glucosamine-6-phosphate [3]) [s⁻¹]	self-cleavage kobs at 160 uM GlcN6P (glucosamine-6-phosphate [4]) [s⁻¹]	self-cleavage kobs at 640 uM GlcN6P (glucosamine-6-phosphate [5]) [s⁻¹]
C8A A48U	< 1e-05	< 1e-05			< 1e-05
C10U A64U	< 1e-05	< 1e-05	< 1e-05	< 1e-05	< 1e-05
A6C G7C A39C G41C C61U	< 1e-05				
G13U G60C	< 1e-05		< 1e-05		
G13C A52C	< 1e-05	< 1e-05			< 1e-05
G41A G59C C68A	< 1e-05	< 1e-05	< 1e-05		
A48G U65A C68A	0.000357 ± 0.00011		0.000113 ± 3.1e-05		
G29U A39U	0.000106 ± 1e-05	0.00196 ± 0.00026	0.0042 ± 0.00041	0.000145 ± 2.1e-05	0.000784 ± 0.00013
A6U C11U C16A U30C C50G	0.000167 ± 2.9e-05	0.000224 ± 9e-05	0.000181 ± 2.9e-05		
G7C U57A	< 1e-05			< 1e-05	
C16A G29U U30G U49G C70U	< 1e-05				
C8A A12G	< 1e-05	< 1e-05	< 1e-05	< 1e-05	< 1e-05
G7A G40A A52C	< 1e-05		< 1e-05		< 1e-05
A36G G44C A64C C67U	< 1e-05				
A14G A15U	0.00111 ± 0.00019	0.00555 ± 0.0014	0.0592 ± 0.021	0.000722 ± 0.00014	0.00751 ± 0.0013
A12C G43C G66U	< 1e-05		< 1e-05		
G13C A48U	< 1e-05	< 1e-05	< 1e-05		
A39G C61U	< 1e-05		3.27e-05 ± 1.1e-05		
A12C C16G	8.16e-05 ± 1.1e-05	0.00161 ± 0.00035	0.00517 ± 0.00083	0.000158 ± 3.6e-05	0.00067 ± 0.00012
C16A G40C	< 1e-05	0.000112 ± 1.8e-05			4.46e-05 ± 1.5e-05
A48C A52C	< 1e-05	< 1e-05	< 1e-05	< 1e-05	< 1e-05
C11A A36U G62C C71G	< 1e-05		< 1e-05	< 1e-05	
G9U G44U	< 1e-05	< 1e-05	< 1e-05		< 1e-05
A52G A64U	< 1e-05			< 1e-05	

Variant	self-cleavage kobs at 40 uM GlcN6P (glucosamine-6-phosphate [1]) [s⁻¹]	self-cleavage kobs at 2500 uM GlcN6P (glucosamine-6-phosphate [2]) [s⁻¹]	self-cleavage kobs at 10000 uM GlcN6P (glucosamine-6-phosphate [3]) [s⁻¹]	self-cleavage kobs at 160 uM GlcN6P (glucosamine-6-phosphate [4]) [s⁻¹]	self-cleavage kobs at 640 uM GlcN6P (glucosamine-6-phosphate [5]) [s⁻¹]
C11A C58A A64G	< 1e-05				
A6C U49A G51U	< 1e-05		< 1e-05		
U56C C61U C70A C71U	< 1e-05	< 1e-05			
A12U A15U A52C	< 1e-05		< 1e-05		
A14G A15U U31C	0.000793 ± 0.00021		0.0212 ± 0.0057		
G9U A36G	< 1e-05	< 1e-05	< 1e-05		
C8G U54C	< 1e-05	< 1e-05	< 1e-05	< 1e-05	< 1e-05
A15C A53U G62A	< 1e-05	< 1e-05	< 1e-05		
C34U U49A C58A U69A	0.000146 ± 5e-05		4.63e-05 ± 2e-05		0.000567 ± 0.00014
C10A G13A U30C G40A	< 1e-05				
A12U A42G C50U C71G	< 1e-05		< 1e-05		
C16G G29U G32A	7.82e-05 ± 1.9e-05		0.0042 ± 0.0009		
G41A G62U	< 1e-05		< 1e-05	< 1e-05	< 1e-05
C8U U47A	< 1e-05		< 1e-05	< 1e-05	< 1e-05
U55A U69C	0.000718 ± 0.00017	7.69e-05 ± 3e-05	0.00148 ± 0.0004	0.000108 ± 3.1e-05	0.000329 ± 0.0001
U65C C68U C71U	< 1e-05				
A6G G29A C34G	< 1e-05	< 1e-05	< 1e-05		< 1e-05
C61U C68G C70A	< 1e-05				
A12G U46C U49G C70U	< 1e-05		3.44e-05 ± 1.4e-05		
A14G C50U G66U C68A	5.56e-05 ± 2.7e-05		4.35e-05 ± 1.8e-05		
A6G U46G C50G U65G C70A	< 1e-05				
C34G G40U G63C C68U	< 1e-05		< 1e-05		
G21U G32A C50G U57G C70G	0.000174 ± 3.9e-05		0.000301 ± 6.1e-05		
